Test results: PMC10531723

Target: PrP-CFP (mouse PrP(23-231) fused to CFP) (mouse) (UniProt P04925)
Experiment: FRET or BRET

Substance “PrP-YFP (mouse PrP(23-231) fused to YFP) (from UniProt P04925 23-231) (domain or fragment)” has an FRET efficiency of 31%.
